In test [1] the target is T1, mouse IL-2Rγ expressed on cells (MC/9) (mouse) (UniProt P34902).
T1 sequence (looked up): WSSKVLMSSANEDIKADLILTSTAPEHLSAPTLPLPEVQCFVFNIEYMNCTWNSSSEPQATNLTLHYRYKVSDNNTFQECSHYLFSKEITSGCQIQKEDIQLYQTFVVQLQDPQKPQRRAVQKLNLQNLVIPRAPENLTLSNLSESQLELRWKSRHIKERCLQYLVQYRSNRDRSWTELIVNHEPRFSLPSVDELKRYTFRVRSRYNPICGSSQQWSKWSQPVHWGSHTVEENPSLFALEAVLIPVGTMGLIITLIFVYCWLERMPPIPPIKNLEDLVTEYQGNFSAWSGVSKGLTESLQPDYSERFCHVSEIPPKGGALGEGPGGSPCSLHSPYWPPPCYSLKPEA
In words: flow cytometry on MC/9 cells (endogenous mouse IL-2Rg), antibody 10 ug/ml.

Test [2] deals with T2, human IL-2Rγ expressed on cells (NK-92, Jurkat) (human) (UniProt P31785).
T2 sequence (looked up): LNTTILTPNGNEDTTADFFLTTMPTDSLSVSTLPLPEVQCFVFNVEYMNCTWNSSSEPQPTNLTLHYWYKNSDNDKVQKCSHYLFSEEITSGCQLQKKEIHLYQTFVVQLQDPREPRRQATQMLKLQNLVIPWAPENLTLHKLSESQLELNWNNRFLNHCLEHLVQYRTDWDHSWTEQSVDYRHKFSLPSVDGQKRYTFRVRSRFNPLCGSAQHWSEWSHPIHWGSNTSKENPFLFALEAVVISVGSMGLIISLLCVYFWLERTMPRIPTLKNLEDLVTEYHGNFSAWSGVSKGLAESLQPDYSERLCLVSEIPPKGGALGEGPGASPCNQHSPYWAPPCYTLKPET
The test is described as follows: flow cytometry on Jurkat cells (endogenous human IL-2Rg), antibody 10 ug/ml. For orientation: Flow cytometry measures light scatter and fluorescence of single cells or particles in a stream.

In test [3] the target is T2, human IL-2Rγ expressed on cells (NK-92, Jurkat) (human). In words: flow cytometry on NK-92 cells (endogenous human IL-2Rg), antibody 10 ug/ml.
The target in test [4] is Human IL2Rγ extracellular domain expressed with a C-terminal mouse IgG2a Fc tag (human). The test is described as follows: SPR Biacore 4000, mAb captured by anti-human Fc, 25 C. (In SPR one partner is held on a chip, and binding of the other changes the refractive index at the surface.)
In test [5] the target is T3, human IL2Rγ expressed on cells (human) (UniProt P31785).
T3 sequence (looked up): T2 sequence (looked up)
In words: cell-based or functional assay.

Positions count from the first letter of the chain named.

B1: H4H12858P (antibody, human IgG4 S228P, kappa, V domains shown)
VH: EVQLVESGGDLVQPGGSLRLSCTASGFIFRNYAMNWVRQAPGKGLEWLSGILGSNDNTYYVDSVKGRFTISRDNSRNTLYLQMNSLRAEDSAVYYCAKGDAGGFDYWGQGTLVTVSS
VL: DVVMTQSPLSLPVILGQPASISCRSSQSLVSSDGNTYLNWFQQRPGQSPRRLIYKVSNRDSGVPDRFSGSGSGTDFTLKISRVEAEDVGAYYCMQGSYWPPTFGQGTKLEIKR
Turning to B1, the Binding Ratio (Sample over unstained MFIs) in test [1] was 1; in test [2], 1; in test [3], 2. The Raw MFI in test [1] amounted to 199 MFI; in test [2], 99 MFI; in test [3], 228 MFI.

B2: H4H13538P (antibody, human IgG4 S228P, kappa, V domains shown)
VH: EVQLVESGGGLVQPGGSLGLSCAASGFTFSNYAMSWVRQAPGKGLEWVSAVSGGGGGTYYADSVKGRFTISRDNSKNTVLLQMNSLRAEDTAVYYCARGRTGGLDYWGPGTLVTVSS
VL: B1 VL with L15F, S31D, F41L, K55E, K79T, A90I, S97T, Y98R, Q105G, L109V
Regarding B2, in test [3], the Binding Ratio (Sample over unstained MFIs) is 1 and the Raw MFI is 235 MFI.

B3: H4H12899P (antibody, human IgG4 S228P, kappa, V domains shown)
VH: QVQLVESGGDLVKPGGSLRLSCATSGFTFSDFYMTWIRQAPGKGLEWISYISNSGSIVKYADSVKGRFTISRDNAKNSLYLQMNSLRAEDTAIYYCARFYGDRWGQGTLVTVSS
VL: DIQLTQSPSFLSASVGDRVTITCWASQGISTFLAWYQQKPGKAPKLLIYAASTLQSGVPSRFSGSGSGTDFTLTISSLQPEDFATYHCQQLNNYPWTFGQGTKVEIKR
Turning to B3, the Binding Ratio (Sample over unstained MFIs) was 1 in test [1], 1 in test [2] and 18 in test [3]. In addition, the figures for the Raw MFI in test [1], in test [2] and in test [3] were 167 MFI, 114 MFI and 2670 MFI, respectively. Further, the 100 nM Ag Bound in test [4] is 1 RU.

B4: H4H12900P (antibody, human IgG4 S228P, kappa, V domains shown)
VH: QVQLVESGGGLVKPGGSLRLSCEASGFTFNDFYMTWIRQAPGKGLEWIAYISKSGDKMRYADSVKGRFSTSRDNAKNSLSLQMNSLRAEDTAVYYCARFYGDIWGQGTLVTVSS
VL: B3 VL with G28D, T31S, A34V, K45N, T53A, D70E, T85S, H87Y, Q89E
B4: the Binding Ratio (Sample over unstained MFIs) in test [1] came to 1; in test [2], 1; in test [3], 28. The Raw MFI in test [1] came out at 128 MFI; in test [2] it was 110 MFI; in test [3], 4200 MFI. The molecule further returned a 100 nM Ag Bound in test [4] of 4 RU.

B5: H4H12874P (antibody, human IgG4 S228P, kappa, V domains shown)
VH: QVQLVESGGGVVQPGRSLRLSCAASGFNFRNFGMHWVRQAPGKGLEWVAGILYDGSSKYYADSVKDRFTISRDNSKNTLFLQMNSLRAEDTAMYYCAKEEDTAMVPFDSWGPGTLVTVSS
VL: B3 VL with T31S, F32Y, K45T, D70E, T85S, H87Y, N92K, N93S, W96L, Q100G
B5: the Binding Ratio (Sample over unstained MFIs) is 1 in test [1], 6 in test [2] and 44 in test [3]. Moreover, the results for the Raw MFI in test [1], in test [2] and in test [3] were 202 MFI, 507 MFI and 6580 MFI, respectively.

B6: H4H13541P (antibody, human IgG4 S228P, kappa, V domains shown)
VH: EVQLVESGGGVVRPGGSLRLSCAASGFIFDDYDMSWVRQPPGRGLEWVSGIDWFGGTRGYADSMKGRFTISRDNAKNSLYLQMNSLRVEDTAFYYCARGGAIVGAVTPFDYWGQGTLVTVSS
VL: DIQMTQSPSSLSASVGNRVTLSCRASQSINTYLSWYQQRPGKAPKLLIYAASSLQSGVPSRFSGSGAGTDFTLTISSLQPEDFATYYCQQSYSAPLTFGGGTKVEIKR
For the molecule B6, in test [3], the Binding Ratio (Sample over unstained MFIs) stood at 37 and the Raw MFI is 7050 MFI.

B7: H4H12863P (antibody, human IgG4 S228P, kappa, V domains shown)
VH: QVQLVESGGGVVQPGRSLRLSCTASGFTFRSYDMYWVRQAPGKGLEWVSVITYDGNNKYYADSVKGRFTISRDNSKNTLFLQMSSLRPEDTAVYYCAKRGLIWVGESFDYWGQGTLVTVSS
VL: DIQMTQSPSTLSASVGDRVTITCRASQSINSWLAWYQQKPGKAPNLLIYKASSLESGVPSRFSGSGSGTEFTLTISSLQPDDFATYYCQQYKSYSWTFGQGTKVEIKR
In the case of B7, the Binding Ratio (Sample over unstained MFIs) in test [1] came to 1; in test [2], 13; in test [3], 87. Besides, the Raw MFI in test [1] was 185 MFI; in test [2], 1170 MFI; in test [3] it was 13000 MFI.

B8: H4H12857P (antibody, human IgG4 S228P, kappa, V domains shown)
VH: EVQLVESGGGVVRPGGSLRLSCAASGFTFDDFDMSWVRQGPGKGLEWVSGINWHGSSTGYADSVKGRFTISRDNAKNSLYLQMSSLRAEDTALYHCVRGGTIVGATTPLDYWGQGTLVTVSS
VL: DIQMTQSPSSLSASVGDRVTMTCRASRTISSYLSWYQQKSGKVPNLLIFGASSLQSGVPSRFSASGSGTDFTLIISSLQPEDFATYYCQQSYSSPLTFGGGTKVEIKR
For the molecule B8, the results for the Binding Ratio (Sample over unstained MFIs) in test [1], in test [2] and in test [3] were 1, 1 and 37, respectively. Also, the figures for the Raw MFI in test [1], in test [2] and in test [3] were 198 MFI, 103 MFI and 5490 MFI, respectively.

B9: human IL-7 (ligand, UniProt P13232 26-177, looked up)
chain: DCDIEGKDGKQYESVLMVSIDQLLDSMKEIGSNCLNNEFNFFKRHICDANKEGMFLFRAARKLRQFLKMNSTGDFDLHLLKVSEGTTILLNCTGQVKGRKPAALGEAQPTKSLEENKSLKEQKKLNDLCFLKRLLQEIKTCWNKILMGTKEH
In test [5], B9 returned an EC50 [M] of ligand; NK92/hIL7R/STAT3-luc of 3.9e-11 M.

(Values after patent publication US20230279131A1.)
